Data on eight molecules can be found in patent publication US20220048967A1 (published 2022).

Numbered stars: 1 amine (or outer) side, 2 acyl side, 3 side chain; on linkers, the order of the positions; unused ones are H or OH. Square brackets hold non-standard residues; d marks the D form. Side chains are listed from the residue outwards. Ends that are not written are not given here. * marks the point of attachment. C20 diacid = O=C(O)CCCCCCCCCCCCCCCCCCC(=O)*; γGlu = O=C(O)[C@H](CCC(=O)[*:2])N[*:1]; αMeL = CC(C)C[C@](C)(N)C(=O)O; Dab = NCC[C@H](N)C(=O)O; AEEA = NCCOCCOCC(=O)O; Aib = CC(C)(N)C(=O)O

Assay [1] deals with human GLP-1 receptor (human, UniProt P43220 24-463). Briefly: cell-based or functional assay.
Assay [2] has as its target Pro-Link-tagged Human GLP-1R (human, UniProt P43220 24-463). Briefly: cell-based or functional assay.

B1: Example 292 (peptide)
peptide: XXEGTFTSDYSIXLDKKAQXEFIEXLIAGGPSSGAPPPS
modifications: D-Tyr1, Aib2, αMeL13, K17 conjugated to (2-[2-(2-Amino-ethoxy)-ethoxy]-acetyl)2-(γ-Glu)-CO-(CH2)18-CO2H, Aib20, αMeY25, C-terminal amide (NH2)
Take B1: in assay [1], the “hGLP1R GTPgS % Top” value came to 71.5% and the “hGLP1R GTPgS Rel EC50” value worked out at 0.429 nM. Besides, in assay [2], the “hGLP1R B-Arrestin2 % Top” value was 29% and the “hGLP1R B-Arrestin2 Rel EC50” value turned out to be 7.74 nM.

B2: Example 354 (peptide)
peptide: XXEGTFTSDYSIXLDXKAQXEFIXYLIAGGPSSGAPPPS
modifications: D-Tyr1, Aib2, αMeL13, Orn16, K17 conjugated to (2-[2-(2-Amino-ethoxy)-ethoxy]-acetyl)2-(γ-Glu)-CO-(CH2)18-CO2H, Aib20, D-Glu24, C-terminal amide (NH2)
For the molecule B2, in assay [1], the “hGLP1R GTPgS % Top” value stood at 53.3% and the “hGLP1R GTPgS Rel EC50” value is 0.967 nM. For the same molecule, in assay [2], the “hGLP1R B-Arrestin2 % Top” value is 22.7% and the “hGLP1R B-Arrestin2 Rel EC50” value worked out at 255 nM.

B3: Example 293 (peptide)
peptide: XXEGTFTSDYSIXLDXKAQXEFIEXLIAGGPSSGAPPPS
modifications: D-Tyr1, Aib2, αMeL13, Orn16, K17 conjugated to (2-[2-(2-Amino-ethoxy)-ethoxy]-acetyl)2-(γ-Glu)-CO-(CH2)18-CO2H, Aib20, αMeY25, C-terminal amide (NH2)
Take B3: in assay [1], the “hGLP1R GTPgS % Top” value was found to be 70.6% and the “hGLP1R GTPgS Rel EC50” value was found to be 0.368 nM. Further, in assay [2], the “hGLP1R B-Arrestin2 % Top” value came out at 29.5% and the “hGLP1R B-Arrestin2 Rel EC50” value amounted to 7.19 nM.

B4: Example 355 (peptide)
peptide: XXEGTFTSDYSIXLDXKAQXEFIXYLIEGGPSSGAPPPS
modifications: D-Tyr1, Aib2, αMeL13, Orn16, K17 conjugated to (2-[2-(2-Amino-ethoxy)-ethoxy]-acetyl)2-(γ-Glu)-CO-(CH2)18-CO2H, Aib20, D-Glu24, C-terminal amide (NH2)
As to B4, in assay [1], the “hGLP1R GTPgS % Top” value was 50.6% and the “hGLP1R GTPgS Rel EC50” value was 1.76 nM. In addition, in assay [2], the “hGLP1R B-Arrestin2 % Top” value was determined as 18.3% and the “hGLP1R B-Arrestin2 Rel EC50” value amounted to 363 nM.

B5: Example 363 (peptide)
peptide: XXEGTFTSDYSIXLDXKAQXAFIXYLIAGGPSSGAPPPS
modifications: D-Tyr1, Aib2, αMeL13, Orn16, K17 conjugated to (2-[2-(2-Amino-ethoxy)-ethoxy]-acetyl)2-(γ-Glu)-CO-(CH2)16-CO2H, Aib20, D-Glu24, C-terminal amide (NH2)
Regarding B5, in assay [1], the “hGLP1R GTPgS % Top” value was determined as 69.6% and the “hGLP1R GTPgS Rel EC50” value was found to be 0.943 nM. Besides, in assay [2], the “hGLP1R B-Arrestin2 % Top” value is 22.1% and the “hGLP1R B-Arrestin2 Rel EC50” value turned out to be 135 nM.

B6: Example 352 (peptide)
peptide: XXEGTFTSDYSIXLDKKAQXAFIXYLIAGGPSSGAPPPS
modifications: D-Tyr1, Aib2, αMeL13, K17 conjugated to (2-[2-(2-Amino-ethoxy)-ethoxy]-acetyl)2-(γ-Glu)-CO-(CH2)18-CO2H, Aib20, D-Glu24, C-terminal amide (NH2)
B6: in assay [1], the “hGLP1R GTPgS % Top” value came out at 63.5% and the “hGLP1R GTPgS Rel EC50” value came to 0.552 nM. Further, in assay [2], the “hGLP1R B-Arrestin2 % Top” value was 17.4% and the “hGLP1R B-Arrestin2 Rel EC50” value was found to be 4.21 nM.

B7: Example 353 (peptide)
peptide: XXEGTFTSDYSIXLDKKAQXEFIXYLIEGGPSSGAPPPS
modifications: D-Tyr1, Aib2, αMeL13, K17 conjugated to (2-[2-(2-Amino-ethoxy)-ethoxy]-acetyl)2-(γ-Glu)-CO-(CH2)18-CO2H, Aib20, D-Glu24, C-terminal amide (NH2)
With B7, in assay [1], the “hGLP1R GTPgS % Top” value is 63.1% and the “hGLP1R GTPgS Rel EC50” value was 1.96 nM. For the same molecule, in assay [2], the “hGLP1R B-Arrestin2 % Top” value worked out at 23% and the “hGLP1R B-Arrestin2 Rel EC50” value was found to be 559 nM.

B8: Example 347 (peptide)
peptide: [dY][Aib]EGTFTSDYSI[αMeL]LD[Dab]K([AEEA-AEEA-γGlu-C20 diacid])AQ[Aib]AFIEYLIAGGPSSGAPPPS-NH2
modifications: N-terminus assumed
SMILES: CC[C@H](C)[C@H](NC(=O)[C@H](CC(C)C)NC(=O)[C@H](Cc1ccc(O)cc1)NC(=O)[C@H](CCC(=O)O)NC(=O)[C@@H](NC(=O)[C@H](Cc1ccccc1)NC(=O)[C@H](C)NC(=O)C(C)(C)NC(=O)[C@H](CCC(N)=O)NC(=O)[C@H](C)NC(=O)[C@H](CCCCNC(=O)COCCOCCNC(=O)COCCOCCNC(=O)CC[C@H](NC(=O)CCCCCCCCCCCCCCCCCCC(=O)O)C(=O)O)NC(=O)[C@H](CCN)NC(=O)[C@H](CC(=O)O)NC(=O)[C@H](CC(C)C)NC(=O)[C@](C)(CC(C)C)NC(=O)[C@@H](NC(=O)[C@H](CO)NC(=O)[C@H](Cc1ccc(O)cc1)NC(=O)[C@H](CC(=O)O)NC(=O)[C@H](CO)NC(=O)[C@@H](NC(=O)[C@H](Cc1ccccc1)NC(=O)[C@@H](NC(=O)CNC(=O)[C@H](CCC(=O)O)NC(=O)C(C)(C)NC(=O)[C@H](N)Cc1ccc(O)cc1)[C@@H](C)O)[C@@H](C)O)[C@@H](C)CC)[C@@H](C)CC)C(=O)N[C@@H](C)C(=O)NCC(=O)NCC(=O)N1CCC[C@H]1C(=O)N[C@@H](CO)C(=O)N[C@@H](CO)C(=O)NCC(=O)N[C@@H](C)C(=O)N1CCC[C@H]1C(=O)N1CCC[C@H]1C(=O)N1CCC[C@H]1C(=O)N[C@@H](CO)C(N)=O
In the case of B8, in assay [1], the “hGLP1R GTPgS % Top” value came out at 46.9% and the “hGLP1R GTPgS Rel EC50” value worked out at 0.759 nM. For the same molecule, in assay [2], the “hGLP1R B-Arrestin2 % Top” value was found to be 24.6% and the “hGLP1R B-Arrestin2 Rel EC50” value was 5.42 nM.
